Data taken from patent US7205275 (dated 2007).
Where two headings read alike, the source gives them in different places. Primed or numbered codes have the meaning given here. Where no end group is shown, it is not given here. [ ]: non-standard residue; d: D form. Fc(3) = Fc: non-antigen-binding fragment of an antibody from proteolytic digestion of a whole antibody (vehicle); Fc(4) = non-antigen-binding fragment of an antibody (from proteolytic digestion of a whole antibody); Fc = immunoglobulin Fc domain fused to the peptide (peptibody); Fc(7) = Fc domain, peptide fused N- or C-terminal to it; Fc″ = Fc domain of the peptibody fusion

T1: mouse Ang-2 (mouse, UniProt O35608)
T1 chain: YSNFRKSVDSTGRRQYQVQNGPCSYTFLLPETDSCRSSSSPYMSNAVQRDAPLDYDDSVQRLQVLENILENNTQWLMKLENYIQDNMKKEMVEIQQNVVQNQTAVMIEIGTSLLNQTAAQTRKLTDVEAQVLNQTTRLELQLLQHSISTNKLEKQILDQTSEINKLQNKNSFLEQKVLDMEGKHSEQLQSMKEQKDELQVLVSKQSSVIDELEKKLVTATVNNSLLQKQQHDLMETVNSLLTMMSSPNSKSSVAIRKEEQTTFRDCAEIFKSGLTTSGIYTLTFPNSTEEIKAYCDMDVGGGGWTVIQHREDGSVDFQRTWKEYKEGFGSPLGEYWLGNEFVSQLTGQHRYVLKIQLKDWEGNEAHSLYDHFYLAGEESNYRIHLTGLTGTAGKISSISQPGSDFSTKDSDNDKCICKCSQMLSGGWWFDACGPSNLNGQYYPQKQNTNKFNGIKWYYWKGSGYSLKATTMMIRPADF

T2: human Ang-2 (human, UniProt O15123)
T2 chain: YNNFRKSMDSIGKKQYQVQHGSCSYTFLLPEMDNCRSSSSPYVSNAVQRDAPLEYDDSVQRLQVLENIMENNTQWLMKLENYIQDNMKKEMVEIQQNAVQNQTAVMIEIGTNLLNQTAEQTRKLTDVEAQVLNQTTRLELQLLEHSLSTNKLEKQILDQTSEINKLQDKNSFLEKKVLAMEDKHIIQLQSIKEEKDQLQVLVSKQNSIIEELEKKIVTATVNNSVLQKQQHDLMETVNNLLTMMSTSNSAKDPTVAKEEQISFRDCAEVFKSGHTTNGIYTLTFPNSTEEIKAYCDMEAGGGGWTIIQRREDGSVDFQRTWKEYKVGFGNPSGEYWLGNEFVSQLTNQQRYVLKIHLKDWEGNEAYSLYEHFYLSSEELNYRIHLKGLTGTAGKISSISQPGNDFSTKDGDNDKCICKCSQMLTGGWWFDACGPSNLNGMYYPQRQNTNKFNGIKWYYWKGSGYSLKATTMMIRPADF

T3: rat Ang-2 (rAng-2) (rat, UniProt O35462)
T3 chain: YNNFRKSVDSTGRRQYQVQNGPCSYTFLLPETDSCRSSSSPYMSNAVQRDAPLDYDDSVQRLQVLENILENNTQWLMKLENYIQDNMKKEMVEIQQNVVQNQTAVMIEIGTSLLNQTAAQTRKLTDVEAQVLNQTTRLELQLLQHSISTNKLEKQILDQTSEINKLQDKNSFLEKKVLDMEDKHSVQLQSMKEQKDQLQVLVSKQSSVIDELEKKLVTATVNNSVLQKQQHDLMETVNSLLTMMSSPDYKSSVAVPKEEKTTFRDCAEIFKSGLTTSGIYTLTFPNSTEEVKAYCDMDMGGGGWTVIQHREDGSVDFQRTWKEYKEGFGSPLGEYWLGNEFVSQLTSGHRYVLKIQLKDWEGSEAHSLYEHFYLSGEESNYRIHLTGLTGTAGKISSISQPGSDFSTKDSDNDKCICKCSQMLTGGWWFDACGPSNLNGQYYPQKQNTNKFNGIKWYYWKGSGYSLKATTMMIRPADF

T4: human Ang-1 (human, UniProt Q15389)
T4 chain: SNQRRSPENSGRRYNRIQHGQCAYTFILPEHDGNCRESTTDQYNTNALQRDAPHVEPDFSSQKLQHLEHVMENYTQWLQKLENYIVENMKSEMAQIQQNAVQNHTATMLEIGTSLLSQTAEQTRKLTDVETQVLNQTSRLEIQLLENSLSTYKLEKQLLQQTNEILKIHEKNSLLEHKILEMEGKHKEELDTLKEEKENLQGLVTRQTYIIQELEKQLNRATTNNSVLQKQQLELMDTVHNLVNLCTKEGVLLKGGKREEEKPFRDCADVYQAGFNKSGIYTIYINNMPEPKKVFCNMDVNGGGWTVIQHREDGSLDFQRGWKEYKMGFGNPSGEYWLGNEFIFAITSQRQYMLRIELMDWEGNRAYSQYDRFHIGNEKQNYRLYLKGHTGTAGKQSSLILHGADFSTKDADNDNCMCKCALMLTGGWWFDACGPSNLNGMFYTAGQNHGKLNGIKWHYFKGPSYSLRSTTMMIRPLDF

T5: mouse Ang-1 (mouse, UniProt O08538)
T5 chain: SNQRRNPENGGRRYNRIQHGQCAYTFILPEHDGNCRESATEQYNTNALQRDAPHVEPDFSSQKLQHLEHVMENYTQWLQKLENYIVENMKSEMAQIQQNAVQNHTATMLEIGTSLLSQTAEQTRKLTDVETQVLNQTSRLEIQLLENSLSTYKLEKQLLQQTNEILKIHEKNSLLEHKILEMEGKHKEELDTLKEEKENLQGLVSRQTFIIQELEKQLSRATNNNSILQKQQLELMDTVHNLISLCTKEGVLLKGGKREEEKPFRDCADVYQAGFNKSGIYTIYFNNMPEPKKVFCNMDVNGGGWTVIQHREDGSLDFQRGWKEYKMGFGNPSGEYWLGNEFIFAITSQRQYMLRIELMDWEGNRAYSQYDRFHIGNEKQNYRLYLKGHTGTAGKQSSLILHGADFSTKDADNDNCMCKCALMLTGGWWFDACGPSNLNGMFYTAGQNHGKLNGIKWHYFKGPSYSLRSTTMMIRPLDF

T6: cAng-2 (UniProt O15123)
T6 chain: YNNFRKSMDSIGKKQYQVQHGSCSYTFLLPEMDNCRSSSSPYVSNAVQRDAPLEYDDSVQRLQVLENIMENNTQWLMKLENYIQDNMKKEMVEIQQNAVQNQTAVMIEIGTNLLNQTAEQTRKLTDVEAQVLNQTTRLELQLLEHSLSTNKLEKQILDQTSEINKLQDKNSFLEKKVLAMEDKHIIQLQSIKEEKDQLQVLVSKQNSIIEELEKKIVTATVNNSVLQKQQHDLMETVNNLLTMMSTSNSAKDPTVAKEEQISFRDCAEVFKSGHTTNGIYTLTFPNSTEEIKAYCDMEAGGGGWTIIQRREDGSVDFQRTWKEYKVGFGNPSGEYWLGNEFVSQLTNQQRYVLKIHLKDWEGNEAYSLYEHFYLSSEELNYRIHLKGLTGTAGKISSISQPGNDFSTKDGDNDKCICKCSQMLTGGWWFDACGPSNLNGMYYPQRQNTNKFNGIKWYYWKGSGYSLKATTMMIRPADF


Tests used:
mouse Ang-2 [1] = target: T1, mouse Ang-2; experiment: competition ELISA vs Tie-2
human Ang-2 [2] = target: T2, human Ang-2; experiment: competition ELISA vs Tie-2
rat Ang-2 (rAng-2) = target: T3, rat Ang-2 (rAng-2); experiment: competition ELISA vs Tie-2
human Ang-2 [3] = target: T2, human Ang-2; experiment: competition ELISA vs Tie-2
human Ang-2 [4] = target: T2, human Ang-2; experiment: competition ELISA vs Tie-2
human Ang-1 [5] = target: T4, human Ang-1; experiment: competition ELISA vs Tie-2
mouse Ang-2 [6] = target: T1, mouse Ang-2; experiment: competition ELISA vs Tie-2
human Ang-1 [7] = target: T4, human Ang-1; experiment: competition ELISA vs Tie-2
mouse Ang-2 [8] = target: T1, mouse Ang-2; experiment: SPR
human Ang-2 [9] = target: T2, human Ang-2; experiment: SPR
human Ang-2 [10] = target: T2, human Ang-2; experiment: SPR
human Ang-2 [11] = target: T2, human Ang-2; experiment: competition ELISA vs Tie-2
mouse Ang-1 = target: T5, mouse Ang-1; experiment: competition ELISA vs Tie-2
cAng-2 = target: T6, cAng-2; experiment: competition ELISA vs Tie-2

| Binder | IC50 (mouse Ang-2 [1]) [nM] | IC50 (human Ang-2 [2]) [nM] | IC50 (rat Ang-2 (rAng-2)) [nM] | IC50 (human Ang-2 [3]) [nM] | IC50 (human Ang-1 [5]) [nM] | IC50 (mouse Ang-2 [6]) [nM] | IC50 (human Ang-1 [7]) [nM] | Kd (human Ang-2 [10]) [nM] | other results |
| --- | --- | --- | --- | --- | --- | --- | --- | --- | --- |
| 2xL1 (N) (designed binder) MGAQKFNPLDELEETLYEQFTFQQGGGGGGGGKFNPLDELEETLYEQFTFQQLEGGGGG[Fc(7)] | 0.8 | 0.65 |  |  |  |  |  |  |  |
| MGAQKFNPLDELEETLYEQFTFQQLEGGGGG[Fc(3)] [L1 (N)] | 11 | 6 |  |  |  |  | > 1000 |  | Kd (mouse Ang-2 [8]): 0.42 nM; Kd (human Ang-2 [9]): 3.1 nM |
| MGAQQKFQPLDELEQTLYEQFMLQQALEGGGGG[Fc(3)] [L1-10 (N)] |  |  | 0.06 | 0.06 | > 1000 | 0.06 |  | 0.77 | IC50 (human Ang-2 [11]): 0.05 nM |
| MGAQQYGCDGFLYGCMINLEGGGGG[Fc(7)] (not fully specified (bridges); printed as MGAQ-QYGCDGFLYGCMINLE-GGGGG-Fc; cysteine pairing not given here; also: Fc fusion domain at position 26) [C17 (N)] | 13 | 9 |  |  |  |  | > 1000 |  |  |
| M[Fc]GGGGGAQQEECEWDPWTCEHMLE (not fully specified (bridges); printed as M-Fc-GGGGGAQQEECEWDPWTCEHMLE; cysteine pairing not given here; also: Fc fusion domain at position 2) [Con4 (C)] | 0.3 | 0.2 | 0.236 | 0.197 | 200 | 0.289 |  | 0.38 | IC50 (mouse Ang-1): 300 nM; IC50 (cAng-2): 0.54 nM |
| MGAQHTFQPLDELEETLYYQWLYDQLLEGGGGG-{Fc″} [L1-21 (N)] |  |  | 0.204 | 0.179 | > 1000 | 0.249 |  | 0.24 | IC50 (mouse Ang-1): > 1000 nM; IC50 (human Ang-2 [11]): 0.17 nM; IC50 (cAng-2): 0.608 nM |
| MGAQTNFMPMDDLEQRLYEQFILQQGLEGGGGG-Fc [L1-7 (N)] |  |  | 0.035 | 0.046 | > 1000 | 0.063 |  | 0.24 | IC50 (mouse Ang-1): > 1000 nM; IC50 (human Ang-2 [11]): 0.03 nM; IC50 (cAng-2): 0.108 nM |
| MGAQKRPCEEIFGGCTYQLEGGGGG[Fc] (not fully specified (bridges); printed as MGAQ-KRPCEEIFGGCTYQLEGGGGG-Fc; cysteine pairing not given here; also: Fc fusion domain at position 26) [Con1 (N)] | ~200 | 26 |  |  |  |  | > 1000 |  |  |

More lines, main results first:

| IC50 (mouse Ang-2 [1]) [nM] | IC50 (human Ang-2 [2]) [nM] | IC50 (rat Ang-2 (rAng-2)) [nM] | IC50 (human Ang-2 [3]) [nM] | IC50 (human Ang-1 [5]) [nM] | IC50 (mouse Ang-2 [6]) [nM] | IC50 (human Ang-1 [7]) [nM] | Kd (human Ang-2 [10]) [nM] | Binder | other results |
| --- | --- | --- | --- | --- | --- | --- | --- | --- | --- |
|  |  | 0.35 | 0.2 | > 1000 | 0.27 |  |  | M[Fc]GGGGGAQTNIQEECEWDPWTCDHMPGKLE (not fully specified; cysteine pairing not given here) [Con4-40 (C)] | IC50 (human Ang-2 [4]): 0.1 nM |
| 33 | 45 |  |  |  |  | > 1000 |  | MGAQHQICKWDPWTCKHWLEGGGGGX (not fully specified (C-terminus, bridges); printed as MGAQ-HQICKWDPWTCKHWLEGGGGG-Fc; cysteine pairing not given here) [TN8-14 (N)] |  |
|  |  | 0.22 | 0.08 | 43 | 0.16 |  | 0.21 | M[Fc(4)]GGGGGAQPIRQEECDWDPWTCEHMWEVLE (not fully specified; cysteine pairing not given here) [Con4-44 (C)] | IC50 (human Ang-2 [4]): 0.09 nM |
| ~700 | 80 |  |  |  |  | > 1000 |  | MGAQKRPCEEMWGGCNYDLEGGGGGX (not fully specified (C-terminus, bridges); printed as MGAQ-KRPCEEMWGGCNYDLEGGGGG-Fc; cysteine pairing not given here) [TN8-8 (N)] |  |
| 7.7 | 21 |  |  |  |  | > 1000 |  | MGAQFDYCEGVEDPFTFGCDNHLEGGGGGX (not fully specified (C-terminus, bridges); printed as MGAQ-FDYCEGVEDPFTFGCDNHLE-GGGGG-Fc; cysteine pairing not given here) [TN12-9 (N)] | Kd (mouse Ang-2 [8]): 0.32 nM; Kd (human Ang-2 [9]): 8.2 nM |
| 1.9 |  |  |  |  |  |  |  | MQEECEWDPWTCEHMGSGSATGGSGSTASSGSGSATHLEGGGGG[Fc] (not fully specified (bridges); cysteine pairing not given here; also: Fc fusion domain at position 45) [Con4 (N) 1K-WT] |  |
